The supplement of paper PMC9170038

Test system: MS2 coat protein
Assay: apparent KD of MS2 coat protein; designed switch direction (-1 OFF switch, 1 ON switch): -1; higher = weaker reporter binding
Summary of the method: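 On Illumina chips, designed RNA switches with common flanks were made by stalled E. coli RNA polymerase. Titrations with SNAP-549-labelled MS2 coat protein, doubling from 0.7 or 1.5 nM to 3 µM, were done with no input, with 200 uM small-molecule ligand, or with an oligonucleotide input. Apparent KD is the median per design over clusters, from curve fits of normalised cluster fluorescence.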

[1] = input ligand: microRNA oligo, concentration not stated
[2] = Eterna round: R95, input ligand: FMN 200 uM
[3] = Eterna round: R95, input ligand: microRNA oligo, concentration not stated
[4] = Eterna round: R95, input ligand: none

Row | Sequence | apparent KD of MS2 coat protein (input ligand: FMN 200 uM) [nM] | apparent KD of MS2 coat protein (input ligand: none) [nM] | apparent KD of MS2 coat protein [3] [nM] | other results
1 | ACGUUGUCAGGAUAUCGUUAAUUUAGUUGUUUGUAUUAGUUCGAGAAGGGACAUGAGGAUCACCCAUGUUUGAA [Ex4 #34] (Eterna round: R97, puzzle: Exclusion 4) | 36.2 | 31.5 |  | 
2 | UGAUCAGACCGAGGAUAUAUAUGUAGGACCCACGUGAGUGGGUCCAGUACAUGAGGAUCACCCAUGUAGAAGGCGGUCUGAUCU [JL ENG2 1.87] (Eterna round: R96, puzzle: Exclusion NG 2) | 19.2 | 15 |  | apparent KD of MS2 coat protein [1]: 10.7 nM
3 | UUAAUGUGAGGAUAUGGUAAAGAUAGAAUGAUGAAAGAACUCCAGAAGGCACAUGAGGAUCACCCAUGUAGAUG [Mat - Exclusion 4 - Mod of JL - D28] (puzzle: Exclusion 4) |  |  | 30.5 | apparent KD of MS2 coat protein [2]: 68.3 nM; apparent KD of MS2 coat protein [4]: 42 nM
4 | CAAACAAGCGAAAGAUCCCACAUGAGGAUCACCCAUGUGCUCGUCUUAUAAGGUACUGUGACGAAAGUCACGGUACC [Sensor 3, v1 - 91 v21] (Eterna round: R97, puzzle: Sensor, turn-off variant 1) | 38.4 | 45.3 |  | 
5 | CCGGUUGGCGCAGGAUAUACAUGAGGAUCACCCAUGUUGAUGAGGAUCACCCAUCAGUUUUUGUUGUAGAAGGGUGGCCCGGCC (Eterna round: R96, puzzle: Exclusion NG 2) |  |  |  | apparent KD of MS2 coat protein [1]: 16.2 nM
6 | AGUAUGCGGCAGGAUAUCCAUCCGCGAAAAGGUGGAGAAGGGCUGACAUGAGGAUCACCCAUGUGCGUCCUGUA [salish99_ex6_r4_030] (Eterna round: R97, puzzle: Exclusion 6) | 25.3 | 17.7 |  | 
7 | CUUUUGUGAGGAUAUCAGUAGUAAUACAAUAGUAUUACUACUGAGAAGGCACAUGAGGAUCACCCAUGUUCCUC [Ex4 344 Omei mod 0] (puzzle: Exclusion 4) |  |  | 40.5 | 
8 | UGCAUGUCAGGAUAUAUUAGUACACUAGUCAGUCUAGGUGCGUAGAAGGGACAUGAGGAUCACCCAUGUGACAU [Eternabot (L2) Solution 1] (Eterna round: R97, puzzle: Exclusion 4) | 143 | 64.9 |  | 
9 | UCAAGUAUGUAGGAUAUCGAUGUCCUUGGACAUCGAGAAGGACGUACAUGAGGAUCACCCAUGUAACUUGCAUG [Exclusion 6 - B - 10:e] (Eterna round: R96, puzzle: Exclusion 6) |  |  |  | apparent KD of MS2 coat protein [1]: 131 nM
10 | UGCAUGGUAGGAUAUACGGAGCAUUAGGGUUUGUUAUGUGGACAUGAGGAUCACCCAUGUAGAAGGGCCGUGCU [JL-ex2-2.16 mat747 mod] (puzzle: Exclusion 2) |  |  | 32.6 | 
11 | AUGAGCAGACGGAGAUCCAACAUGAGGAUCACCCAUGUCUCAUAAGCUUUUUGUUCAUCUUAUUGUACCUUGGUGCU [Mat - Sensor v3 - turn-off var 1 - JL Mod - D22] (puzzle: Sensor v3, turn-off variant 1) |  |  | 12.6 | apparent KD of MS2 coat protein [2]: 53.7 nM; apparent KD of MS2 coat protein [4]: 67.7 nM
12 | UUUAUGUCAGGAUAUGAGUCGUAGAACAAUAGUACUACGUCUCAGAAGGGACAUGAGGAUCACCCAUGUGCCUC [Fiskers Ex 4 Super Stable 44 mod 26] (puzzle: Exclusion 4) |  |  | 35.7 | 
13 | GAUCUGACAGGAUAUACAUGAGGAUCACCCAUGUGCGAGCUAGCGAAAGCUAGCUUAGGUAGAAGGGUCAGAUC [Ex3 dot plot directed v3] (puzzle: Exclusion 3) |  |  | 10.7 | 
14 | CUUUUGUGAGGAUAUCAGUAGUAAUAAAAUAAAAUUACUACUGAGAAGGCACAUGAGGAUCACCCAUGUUCCUC [salish99_ex4_r3_018] (puzzle: Exclusion 4) |  |  | 37.6 | 
15 | GGAGGAAGAGAGGAUAUGCACUCAAGGAGAAAAGCAGAAGGUUCAACAUGAGGAUCACCCAUGUAUGAUCCUCA [AK-MS2ROC-r4-exclusion6-3] (Eterna round: R97, puzzle: Exclusion 6) | 247 | 197 |  | 
16 | AAAAAAAACAAGCUUAGGGACAUGAGGAUCACCCAUGUUCGUCUUAUAAAAAUAAAAAUAAAAAACAAAAAAUAAAA [Sensor V2: 53] (Eterna round: R96, puzzle: Sensor v2, turn-off variant) | 22.5 | 24.1 |  | apparent KD of MS2 coat protein [1]: 128 nM
17 | UAACAAAUUGUCAGGAUAUCAAUCCCGGCCCAGAUUGAGAAGGGACAUGAGGAUCACCCAUGUAUGAUUCUCAA [jl-ex4-4.51 ViennaUCT mod] (Eterna round: R97, puzzle: Brourd's mod of Exclusion 4) | 65.4 | 31.9 |  | 
18 | UGUUGUUACGCAGGAUAUGAGGAUCACCCAUAUCAGGAUAUCGAAAGAGAAUUUCUGAGGAUCACCCAGAAGGGCGGGUUAACA [pwkr exNG2 2xF5 2xFMN.37] (Eterna round: R96, puzzle: Exclusion NG 2) | 125 | 47.7 |  | apparent KD of MS2 coat protein [1]: 40.3 nM
19 | AACAGUACAGGAUAUACAUGAGGAUCACCCAUGUGAGAUUUAAGUGGCGUACCACAAAGUAGAAGGGUACUGGA [JL Maslow Revisted mod 5] (Eterna round: R96, puzzle: Exclusion 3) | 230 | 37.3 |  | apparent KD of MS2 coat protein [1]: 29.6 nM
20 | GUCACAUGGACAUAGGAUCACAUGAGGAUCACCCAUGUGACUAACAAGCUUUUUGUUCGUCUUAUGUCUAUGUGAAG [Stov1/16-B3] (Eterna round: R97, puzzle: Sensor, turn-off variant 1) | 13.1 | 16.9 |  | 
21 | ACAAGCUUUUUGUUCGUCUUAUAAUAAUAAAUAAAUAUAACAUGAGGAUCACCCAUGUUGAGAAGACAACCUCAUGU [Sesor Array 24 - Jieux - Sensor v3, turn-off variant 2] (puzzle: Sensor v3, turn-off variant 2) |  |  | 108 | apparent KD of MS2 coat protein [2]: 242 nM; apparent KD of MS2 coat protein [4]: 420 nM
22 | GAUUAUGCGAGCUUUAGGGACAUGAGGAUCACCCAUGUUCGUCUUAUUAGUCUAAGUACACUGACAUACCUAAAUCU [JMF 61] (puzzle: Sensor v3, turn-off variant 1) |  |  | 14.2 | apparent KD of MS2 coat protein [2]: 13.3 nM; apparent KD of MS2 coat protein [4]: 12.4 nM
23 | GGAUGAGGAGUGAGGAUAUCGUGUUCGAAAGAACGUGAGAAGGCACAUGAGGAUCACCCAUGUGAUCCUCAUCG [Omei Ex4B A22] (Eterna round: R97, puzzle: Brourd's mod of Exclusion 4) | 365 | 59.6 |  | 
